The values that follow come from the supplement of paper PMC10724198.

The data set has as its system Saccharomyces cerevisiae. The experiment in a line: protein stability index of tFT-peptide fusion (C-terminal peptide) (PSI (0-1 scale)); higher = more stable (slower turnover). Conditions: temperature: 30 C. As to the method:
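MPS profiling in S. cerevisiae of the yeast C-terminome library: the last 12 aa of each annotated ORF are fused to the C-terminus of a sfGFP-mCherry timer, after a GGGS linker. Cells are FACS-sorted into 8 mCherry/sfGFP bins and deep-sequenced. PSI runs from 0 (unstable) to 1 (stable); wild type and das1Δ backgrounds, two technical replicates each.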

[1] abbreviates: genetic background: das1 deletion.

± gives the standard deviation of the averaged measurements.

In turn, KEFQNSDIADLY [SGV1 C-terminal 12 aa] displayed a protein stability index under setting [1] of 0.714 ± 0.01 and a protein stability index (genetic background: wild type) of 0.686 ± 0.017.
In the case of KFFLTISADVSF [YNL057W C-terminal 12 aa], the protein stability index under setting [1] turned out to be 0.6369 ± 0.0022 and the protein stability index (genetic background: wild type) stood at 0.647 ± 0.03.
The like results for KFRKDEDKSVKQ [TAN1 C-terminal 12 aa] were, in that order, 0.68521 ± 0.00053 and 0.702 ± 0.056.
The matching figures for KGDNITLITSAD [SME1 C-terminal 12 aa]: 0.688 ± 0.0079 and 0.685 ± 0.099.
The matching figures for KHKNYLSFNFTK [YLL065W C-terminal 12 aa]: 0.698 ± 0.038 and 0.69 ± 0.012.
On to KHKSSSYANRDS [DUS3 C-terminal 12 aa], for which the protein stability index by setting is: under setting [1], 0.6941 ± 0.00079; (genetic background: wild type) 0.693 ± 0.026.
The matching figures for KINKNGLLENIL [IES3 C-terminal 12 aa]: 0.702 ± 0.019 and 0.7227 ± 0.0051.
Consider KISFKWKKQRKR [UTP11 C-terminal 12 aa], for which the protein stability index was determined as 0.71 ± 0.01 under setting [1] and 0.655 ± 0.015 (genetic background: wild type).
The like results for KIYMANAPPPPV [VPS54 C-terminal 12 aa] were, in that order, 0.706 ± 0.013 and 0.668 ± 0.02.
Take KKFIYQQLDMFS [YOL024W C-terminal 12 aa]: the protein stability index reads like this: under setting [1], 0.7181 ± 0.0053; (genetic background: wild type) 0.7 ± 0.024.
KKGLTRSVKFKN [SAS10 C-terminal 12 aa]: the protein stability index reads like this: under setting [1], 0.708 ± 0.044; (genetic background: wild type) 0.667 ± 0.017.
Turning to KKHDWSDISQLW [OSH3 C-terminal 12 aa], the protein stability index is, setting by setting: under setting [1], 0.7283 ± 0.0011; (genetic background: wild type) 0.728 ± 0.016.
The like results for KKKSQNKSRKDD [PBR1 C-terminal 12 aa] were, in that order, 0.7005 ± 0.0067 and 0.691 ± 0.069.
Regarding KKLAKSGIEFKW [NOP15 C-terminal 12 aa], the protein stability index was determined as 0.704 ± 0.018 under setting [1] and 0.684 ± 0.063 (genetic background: wild type).
The like results for KKTAIDKLITLL [AIM18 C-terminal 12 aa] were, in that order, 0.681 ± 0.019 and 0.342 ± 0.017.
In the case of KLKRAKRKGISE [IMP21 C-terminal 12 aa], the protein stability index by setting is: under setting [1], 0.693 ± 0.013; (genetic background: wild type) 0.692 ± 0.012.
The matching figures for KLRAKRLAKGGR [RPG1 C-terminal 12 aa]: 0.696 ± 0.012 and 0.705 ± 0.011.
The like results for KNFRNQYSLHPP [YHR095W C-terminal 12 aa] were, in that order, 0.7047 ± 0.0045 and 0.6752 ± 0.0034.
For the sequence KNRRGNRSGYRR [THO1 C-terminal 12 aa], the protein stability index reads like this: under setting [1], 0.703 ± 0.0025; (genetic background: wild type) 0.689 ± 0.024.
KPIETVFDEETV [YIP3 C-terminal 12 aa]: the protein stability index is, setting by setting: under setting [1], 0.697 ± 0.018; (genetic background: wild type) 0.72 ± 0.041.
The matching figures for KQGPKNLKKTKK [TAF13 C-terminal 12 aa]: 0.704 ± 0.0098 and 0.679 ± 0.0097.
Regarding KQQSWLRRVIGY [ENB1 C-terminal 12 aa], the protein stability index under setting [1] was 0.696 ± 0.015 and the protein stability index (genetic background: wild type) came to 0.688 ± 0.038.
As to KQSKKKTSFTRF [YBL028C C-terminal 12 aa], the protein stability index reads like this: under setting [1], 0.699 ± 0.036; (genetic background: wild type) 0.66155 ± 0.00019.
The like results for KRHLTPAVELDY [PRP40 C-terminal 12 aa] were, in that order, 0.671 ± 0.008 and 0.6566 ± 0.001.
Regarding KRKFLGEHRKTL [TOK1 C-terminal 12 aa], the protein stability index under setting [1] was 0.713 ± 0.01 and the protein stability index (genetic background: wild type) was 0.67338 ± 0.00061.
The like results for KRLIGIAEATLN [SEC31 C-terminal 12 aa] were, in that order, 0.666 ± 0.032 and 0.667 ± 0.014.
The like results for KRNFCPFHDAVF [PIB1 C-terminal 12 aa] were, in that order, 0.712 ± 0.01 and 0.716 ± 0.043.
The matching figures for “KRQGRTLYGFGG [YBR009C; YNL030W C-terminal 12 aa]”: 0.7013 ± 0.0062 and 0.693 ± 0.021.
As for KSGPEWIAENRD [TUM1 C-terminal 12 aa], the protein stability index by setting is: under setting [1], 0.716 ± 0.023; (genetic background: wild type) 0.7166 ± 0.0051.
The like results for KSLWDYVKKNTE [TAF14 C-terminal 12 aa] were, in that order, 0.689 ± 0.046 and 0.712 ± 0.019.
The like results for KSTNCCLIYDST [KKQ8 C-terminal 12 aa] were, in that order, 0.7052 ± 0.00093 and 0.675 ± 0.036.
The matching figures for KSVVVRSKEKQS [GAA1 C-terminal 12 aa]: 0.7002 ± 0.0014 and 0.441 ± 0.014.
KTETLSVPRILT [YBR090C C-terminal 12 aa]: the protein stability index is 0.689 ± 0.01 under setting [1] and 0.722 ± 0.059 (genetic background: wild type).
On to KTIDNLKALMKN [PFD1 C-terminal 12 aa], for which the protein stability index is, setting by setting: under setting [1], 0.696 ± 0.0081; (genetic background: wild type) 0.721 ± 0.019.
Take KTLWSRFIEHFV [MIM2 C-terminal 12 aa]: the protein stability index runs as follows: under setting [1], 0.746 ± 0.022; (genetic background: wild type) 0.671 ± 0.023.
The like results for KTVGKLVLEIPQ [ZTA1 C-terminal 12 aa] were, in that order, 0.689 ± 0.033 and 0.701 ± 0.051.
The like results for KTVIENPLEMLL [LAT1 C-terminal 12 aa] were, in that order, 0.6972 ± 0.002 and 0.694 ± 0.025.
The matching figures for KVEFSKSETKTL [MSL1 C-terminal 12 aa]: 0.71 ± 0.018 and 0.6736 ± 0.0014.
Turning to KVHQGKYNGPGL [AI2 C-terminal 12 aa], the protein stability index under setting [1] was determined as 0.69085 ± 0.00022 and the protein stability index (genetic background: wild type) turned out to be 0.727 ± 0.037.
The like results for KVKRLMDFLEED [NSL1 C-terminal 12 aa] were, in that order, 0.678 ± 0.0098 and 0.694 ± 0.024.
The matching figures for KWQARQRGLQRF [PMP1 C-terminal 12 aa]: 0.69535 ± 0.00066 and 0.704 ± 0.018.
The like results for KWVGQYPVPGDI [SHM1 C-terminal 12 aa] were, in that order, 0.693 ± 0.0071 and 0.687 ± 0.04.
As to KYFADLTQSITK [YBR242W C-terminal 12 aa], the protein stability index by setting is: under setting [1], 0.719 ± 0.051; (genetic background: wild type) 0.687 ± 0.029.
The matching figures for LADSKHCSGLHK [ASF2 C-terminal 12 aa]: 0.6837 ± 0.0028 and 0.703 ± 0.0086.
The matching figures for LAFSGGLANSIA [DSE4 C-terminal 12 aa]: 0.712 ± 0.00097 and 0.677 ± 0.024.
On to LALYKKAYGIEF [STP2 C-terminal 12 aa], for which the protein stability index was determined as 0.686 ± 0.031 under setting [1] and 0.6671 ± 0.0058 (genetic background: wild type).
Turning to LAPPPQKQSSSD [GRH1 C-terminal 12 aa], the protein stability index is, setting by setting: under setting [1], 0.758 ± 0.058; (genetic background: wild type) 0.729 ± 0.029.
The matching figures for “LASEAAVGCNKS [YKL156C-A C-terminal 12 aa]”: 0.688 ± 0.0092 and 0.745 ± 0.055.
For LASKHSQYTSPQ [RGT2 C-terminal 12 aa], the protein stability index is, setting by setting: under setting [1], 0.72 ± 0.0086; (genetic background: wild type) 0.662 ± 0.014.
The matching figures for “LCMSCGYVSAGK [YMR173W-A C-terminal 12 aa]”: 0.697 ± 0.016 and 0.749 ± 0.046.
The like results for LDDIEKDLRANA [SWI4 C-terminal 12 aa] were, in that order, 0.7 ± 0.021 and 0.679 ± 0.012.
LDISASLEKIAT [FMP52 C-terminal 12 aa] gave a protein stability index under setting [1] of 0.677 ± 0.018 and a protein stability index (genetic background: wild type) of 0.682 ± 0.011.
Regarding LECTPIINLFIV [MNL1 C-terminal 12 aa], the protein stability index stood at 0.644 ± 0.0069 under setting [1] and 0.13125 ± 2.3e-05 (genetic background: wild type).
Regarding LEDSTRVYSNLM [ARP1 C-terminal 12 aa], the protein stability index under setting [1] was determined as 0.693 ± 0.007 and the protein stability index (genetic background: wild type) is 0.6835 ± 0.0043.
The matching figures for LEEELTKIGLLP [GRX8 C-terminal 12 aa]: 0.706 ± 0.018 and 0.698 ± 0.0098.
As for LEKLLKTVLNTL [ORC2 C-terminal 12 aa], the protein stability index under setting [1] stood at 0.69009 ± 0.00049 and the protein stability index (genetic background: wild type) is 0.696 ± 0.028.
As to LENTLKDSGVLQ [GPA2 C-terminal 12 aa], the protein stability index reads like this: under setting [1], 0.692 ± 0.002; (genetic background: wild type) 0.717 ± 0.047.
The like results for LESADKKKDVKA [DUS1 C-terminal 12 aa] were, in that order, 0.692 ± 0.0088 and 0.713 ± 0.015.
The like results for LETDQDFLDGLL [YER034W C-terminal 12 aa] were, in that order, 0.708 ± 0.021 and 0.695 ± 0.0081.
As for LEVTTKPREWVK [HEM13 C-terminal 12 aa], the protein stability index amounted to 0.687 ± 0.018 under setting [1] and 0.712 ± 0.069 (genetic background: wild type).
In turn, “LFSSRNTVCAPY [YIL134C-A C-terminal 12 aa]” returned a protein stability index under setting [1] of 0.7258 ± 0.0047 and a protein stability index (genetic background: wild type) of 0.727 ± 0.018.
Regarding LFSVLVALLALL [CRH1 C-terminal 12 aa], the protein stability index is, setting by setting: under setting [1], 0.661 ± 0.037; (genetic background: wild type) 0.48 ± 0.017.
The like results for LGSSMVQGRSIR [YPK1 C-terminal 12 aa] were, in that order, 0.71 ± 0.024 and 0.661 ± 0.0085.
The like results for LHMNTNRLAGIR [SEC9 C-terminal 12 aa] were, in that order, 0.7133 ± 0.0013 and 0.718 ± 0.018.
The matching figures for LHTLYLRPASAI [SSN8 C-terminal 12 aa]: 0.701 ± 0.021 and 0.669 ± 0.03.
Take LIDVVPRRPLPQ [HAP5 C-terminal 12 aa]: the protein stability index by setting is: under setting [1], 0.734 ± 0.033; (genetic background: wild type) 0.723 ± 0.03.
The like results for LIWELGDGQSGQ [INO4 C-terminal 12 aa] were, in that order, 0.7444 ± 0.0017 and 0.7182 ± 0.0015.
